From PMC11624282, “PARP1 condensates differentially partition DNA repair proteins and enhance DNA ligation”

Columns and labels:
[1] = target: PARP1 (Homo sapiens, UniProt P09874 1-1014); test: single-molecule oligo capture on lambda DNA; 5 nM PARP1, 20 nM oligo; 98% of oligos dissociate with 500 µM NAD+; Condensation (DIC, PARP1 truncations): 20 mM Tris pH 7.5, 50 mM NaCl, 7.5 mM MgCl2, 1 mM DTT; DNA curtains: 25-150 mM NaCl tested; temperature not stated; conditions: protein: recombinant; tags: none stated after His-SUMO cleavage; label: 3' ATTO647N on S4; blunt
Sequence of PARP1 (P09874 whole entry, the tested form may be a part): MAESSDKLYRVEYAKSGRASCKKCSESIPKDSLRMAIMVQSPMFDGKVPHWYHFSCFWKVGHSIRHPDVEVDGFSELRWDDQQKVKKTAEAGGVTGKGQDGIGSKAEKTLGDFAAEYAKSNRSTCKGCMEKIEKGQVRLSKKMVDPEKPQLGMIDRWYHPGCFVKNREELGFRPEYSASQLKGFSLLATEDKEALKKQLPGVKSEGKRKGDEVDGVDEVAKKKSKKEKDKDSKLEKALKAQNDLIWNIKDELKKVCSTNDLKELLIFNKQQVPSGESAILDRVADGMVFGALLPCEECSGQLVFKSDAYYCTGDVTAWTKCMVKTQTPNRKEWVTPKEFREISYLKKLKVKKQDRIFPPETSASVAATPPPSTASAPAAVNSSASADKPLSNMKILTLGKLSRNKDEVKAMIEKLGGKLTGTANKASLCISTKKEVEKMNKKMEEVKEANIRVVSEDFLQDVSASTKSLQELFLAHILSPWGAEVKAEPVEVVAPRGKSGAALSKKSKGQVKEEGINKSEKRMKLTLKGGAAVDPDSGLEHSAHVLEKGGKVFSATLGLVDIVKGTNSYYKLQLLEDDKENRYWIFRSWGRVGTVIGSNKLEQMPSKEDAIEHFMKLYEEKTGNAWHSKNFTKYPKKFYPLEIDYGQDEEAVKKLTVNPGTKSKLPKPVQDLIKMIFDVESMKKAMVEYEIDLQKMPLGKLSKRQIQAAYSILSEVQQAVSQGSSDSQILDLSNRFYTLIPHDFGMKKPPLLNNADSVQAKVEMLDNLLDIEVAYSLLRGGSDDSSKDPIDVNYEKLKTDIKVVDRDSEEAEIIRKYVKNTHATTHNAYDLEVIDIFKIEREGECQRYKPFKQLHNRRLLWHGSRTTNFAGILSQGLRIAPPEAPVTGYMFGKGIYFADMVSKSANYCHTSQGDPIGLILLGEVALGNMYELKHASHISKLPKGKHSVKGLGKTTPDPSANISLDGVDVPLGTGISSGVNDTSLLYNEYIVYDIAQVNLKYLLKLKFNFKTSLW

[2] = target: T1, mCherry-PARP1 (Homo sapiens, UniProt P09874 1-1014); test: condensation, fluorescence microscopy; 4 µM protein; lost at high salt; reentrant at high DNA; Condensation (DIC, PARP1 truncations): 20 mM Tris pH 7.5, 50 mM NaCl, 7.5 mM MgCl2, 1 mM DTT; DNA curtains: 25-150 mM NaCl tested; temperature not stated; conditions: protein: recombinant; tags: mCherry (pET-SUMO-mCherry-PARP1); label: Cy5 at 5' of S10 (labelled version, 10% where stated); three annealed oligos, central nick, blunt ends
T1 sequence (P09874 whole entry, the tested form may be a part): as above

[3] = target: T1, mCherry-PARP1; test: condensation, fluorescence microscopy; 4 µM protein; Condensation (DIC, PARP1 truncations): 20 mM Tris pH 7.5, 50 mM NaCl, 7.5 mM MgCl2, 1 mM DTT; DNA curtains: 25-150 mM NaCl tested; temperature not stated; conditions: protein: recombinant; tags: mCherry (pET-SUMO-mCherry-PARP1); dumbbell: two hairpins with a single nick

B1: 60 bp DNA-ATTO647N (dsDNA)
DNA 1: ACGAAGTCTTATGGCAAAACCGATGGACTATGTTTCGGGTAGCACCAGAAGTCTATAACA
DNA 2: TGTTATAGACTTCTGGTGCTACCCGAAACATAGTCCATCGGTTTTGCCATAAGACTTCGT
modifications: 5' BioTEG on S3
B1: binds [1].

B2: triplex DNA (nicked) (dsDNA)
DNA 1: GCTTAGCTTGGAATCGTATCATGTACACTCGTGTGCCGTGTAGACCGTGCC
DNA 2: TGTACATGATACGATTCCAAGCTAAGC
DNA 3: GGCACGGTCTACACGGCACACGAG
modifications: 5'-phosphate on S9
B2: binds [2].

GCTGGCTTCGTAAGAAGCCAGCTCGCGGTCAGCTTGCTGACCGCG (structured_DNA, 5'-phosphate) [nicked dumbbell DNA]: binds [3].
